According to patent US20220133889A1:

Experiments:
huTIM-3/his (human) [1] = target: huTIM-3/his (human) (UniProt Q8TDQ0); assay: Biacore, hTIM-3/his captured by anti-His antibody on a CM5 chip; first injection
huTIM-3/his (human) [2] = target: huTIM-3/his (human) (UniProt Q8TDQ0); assay: Biacore sequential injection; value belongs to the 2nd antibody huIgG1; competitor (1st antibody) huIgG1
huTIM-3/his (human) [3] = target: huTIM-3/his (human) (UniProt Q8TDQ0); assay: Biacore sequential injection; value belongs to the 2nd antibody huIgG1; competitor (1st antibody) ABTIM3-hum03
huTIM-3/his (human) [4] = target: huTIM-3/his (human) (UniProt Q8TDQ0); assay: Biacore sequential injection; value belongs to the 2nd antibody huIgG1; competitor (1st antibody) ABTIM3-hum11
huTIM-3/his (human) [5] = target: huTIM-3/his (human) (UniProt Q8TDQ0); assay: Biacore sequential injection; value belongs to the 2nd antibody huIgG1; competitor (1st antibody) ABTIM3-hum21

change in RU (1st antibody injection) (huTIM-3/his (human) [1]): 0.27 RU
change in RU (2nd antibody injection) (huTIM-3/his (human) [2]): 3.6 RU
change in RU (2nd antibody injection) (huTIM-3/his (human) [3]): 4.5 RU
change in RU (2nd antibody injection) (huTIM-3/his (human) [4]): 3.8 RU
change in RU (2nd antibody injection) (huTIM-3/his (human) [5]): 4.5 RU
Substance: huIgG1 (antibody)
